Results: patent US20120302737A1 (Genentech, published 2012)

B1: wild-type α-EGFR antibody (D1.5) (antibody, human IgG1, kappa, V domains shown)
VH: EVQLVESGGGLVQPGGSLRLSCAASGFTFTGNWIHWVRQAPGKGLEWVGEISPSGGYTDYADSVKGRFTISADTSKNTAYLQMNSLRAEDTAVYYCARESRVSYEAAMDYWGQGTLVTVSS
VL: DIQMTQSPSSLSASVGDRVTITCRASQDVSTAVAWYQQKPGKAPKLLIYSASFLYSGVPSRFSGSGSGTDFTLTISSLQPEDFATYYCQQSYPTPYTFGQGTKVEIKR
notes: also called Wt α-EGFR (D1.5); D1.5 anti-EGFR antibody
B2: one-armed α-EGFR engineered antibody (antibody)
heavy: not shown
chain: not shown
light: DIQMTQSPSSLSASVGDRVTITCRASQDVSTAVAWYQQKPGKAPKLLIYSASFLYSGVPSRFSGSGSGTDFTLTISSLQPEDFATYYCQQSYPTPYTFGQGTKVEIKRTVAAPSVFIFPPSDEQLKSGTASVVCLLNNFYPREAKVQWKVDNALQSGNSQESVTEQDSKDSTYSLSSTLTLSKADYEKHKVYACEVTHQGLSSPVTKSFNRGEC
notes: also called 1-armed α-EGFR; One-Armed EGFR

Experiments:
[1] = target: T1, EGFR on cells (NR6 expressing EGFR; HCA7) (UniProt P00533 25-1210, limits assumed); assay: equilibrium binding on HCA7 cells co-expressing EGFR and HER2, radiolabeled antibody competed with unlabeled antibody
T1 construct: whole, on cells; also called EGFR-NR6; EGFR-expressing NR6 cells

HER2 receptor ECD [2] = target: T2, HER2 receptor ECD (UniProt P04626 23-652, limits assumed); assay: Octet; antibody loaded on the probe, 1st antigen HER2
T2 construct: extracellular domain; also called HER2ECD; HER2 extracellular domain

[3] = target: T1, EGFR on cells (NR6 expressing EGFR; …); assay: equilibrium binding on NR6 cells expressing EGFR, radiolabeled antibody competed with unlabeled antibody
HER2 receptor ECD [4] = target: T2, HER2 receptor ECD; assay: Octet; loaded probe, 1st antigen HER2

Kd [1] [nM]	binding result (HER2 receptor ECD [2])	Kd [3] [nM]	binding result (HER2 receptor ECD [4])	Binder
0.34	no binding	0.56		B1
		1.15	no binding	B2
